Data taken from article PMC7477745.

Target: CD2 (human (endogenous in primary CD8+ T cells)) (UniProt P06729)
Chain of UniProt P06729 (P06729 25-351): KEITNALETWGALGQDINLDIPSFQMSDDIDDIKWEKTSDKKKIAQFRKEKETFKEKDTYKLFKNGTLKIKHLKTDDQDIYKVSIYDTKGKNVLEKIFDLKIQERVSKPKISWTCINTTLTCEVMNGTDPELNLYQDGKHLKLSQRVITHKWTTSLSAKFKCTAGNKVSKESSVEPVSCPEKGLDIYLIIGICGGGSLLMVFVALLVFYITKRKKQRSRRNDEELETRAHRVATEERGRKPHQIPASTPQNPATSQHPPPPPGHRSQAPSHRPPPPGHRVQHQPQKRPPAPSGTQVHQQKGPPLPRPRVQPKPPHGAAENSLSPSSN

efficacy (Emax) of cytokine production (TNF-α, IFN-γ, IL-2; ELISA) by c58c61-TCR CD8+ T cell blasts on plate-immobilised pMHC with a titration of coimmobilised CD58, 8 h: > 10 fold
potency (EC50 of pMHC) of cytokine production (TNF-α, IFN-γ, IL-2; ELISA) by c58c61-TCR CD8+ T cell blasts on plate-immobilised pMHC with a titration of coimmobilised CD58, 8 h: 50 fold
Substance: extracellular part of human CD58 (aa 29–213) (from UniProt P19256 29-213) (ligand)
